Results taken from paper PMC7739888, “Induction of the cydAB Operon Encoding the bd Quinol Oxidase Under Respiration-Inhibitory Conditions by the Major cAMP Receptor Protein MSMEG_6189 in Mycobacterium smegmatis”.

Molecular target: T1, Crp1 (MSMEG_6189), C-terminal His6 (UniProt A0R5H1 1-224)
T1 sequence: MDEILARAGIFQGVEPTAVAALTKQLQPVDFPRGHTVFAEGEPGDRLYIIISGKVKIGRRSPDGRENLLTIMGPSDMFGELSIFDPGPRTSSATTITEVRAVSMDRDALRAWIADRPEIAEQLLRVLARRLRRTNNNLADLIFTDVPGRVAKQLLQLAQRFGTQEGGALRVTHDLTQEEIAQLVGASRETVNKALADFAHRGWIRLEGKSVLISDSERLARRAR
Experiment: EMSA; 200 uM cAMP; binding virtually abolished; EMSA: 20 mM Tris-HCl pH 8.0, 100 mM NaCl, 2.5 mM MgCl2, 1 mM EDTA, 1 mM DTT, 50 ug/ml BSA, 10% glycerol, 25 C 20 min; footprinting: 20 mM Tris-HCl pH 8.0, 0.2 mM MgCl2, 2.1 mM KCl, 0.04 mM DTT, 11.1% glycerol, 25 C, 0.15-0.6 uM Crp1
Conditions: protein: recombinant; tags: C-terminal His6; chain copies: 2; label: none (SYBR Green stain); blunt

B1: M3 (CBS1+CBS2 mutant) 99-bp (dsDNA)
DNA 1: GCAGCGGGGTCAGGAAGCTCGGCGCCGCCTTCCCGACCGGCTTTTCATCGGCGCCTCCCCCCAGCTAACCTTTCGCGCTACCTGCGTCGATCTCCTGGC
DNA 2: GCCAGGAGATCGACGCAGGTAGCGCGAAAGGTTAGCTGGGGGGAGGCGCCGATGAAAAGCCGGTCGGGAAGGCGGCGCCGAGCTTCCTGACCCCGCTGC
binding result: no binding
